Patent publication US20250296975A1

Target: His-tagged T-cell immunoreceptor with Ig and ITIM domains (TIGIT) (UniProt Q495A1)
Test: biolayer interferometry, His-tagged TIGIT

- Kd: 3.12 nM
B1: anti-TIGIT antibody TIG1 (antibody, from another filing, V domains shown)
VH: DVQLVESGGGLVQPGGSRKLSCAASGFTFSNFGMHWVRQAPEKGLEWVAFISSGSSSIYYADTVKGRFTISRDNPKNTLFLQMTSLRSEDTAMYYCARMRLDYYAMDYWGQGTSVTVSS
VL: DVQITQSPSYLAASPGETITINCRASKSISKYLAWYQEKPGKTNKLLIYSGSTLQSGIPSRFSGSGSGTDFTLTISSLEPEDFAMYYCQQHNEYPWTFGGGTKLEIK
